Results on 1 protein are retold here after patent US20190021294A1 (WAKE FOREST UNIVERSITY HEALTH SCIENCES, published 2019).

The data set deals with the molecule itself. The data set can be described thus: X-ray crystal structure of the TREX1 D18N-dsDNA complex (homodimer of protomers). How it is done:
Structure Determination. The mouse recombinant Trex1 enzyme (amino acids 1-242) was prepared and crystallized with a dsDNA oligonucleotide. The X-ray data were collected and processed as described further below.
Protein Crystallization and X-ray Data Collection. The TREX1 D18N mutant was crystallized using the sitting drop vapor diffusion technique. The protein was dialyzed in 20 mM MES (pH 6.5), 50 mM NaCl and concentrated to 10 mg/mL. The pseudo-palindromic oligonucleotide DNA used for crystallization (5′-[…]-3′ (SEQ ID NO:1, Operon)) was self-annealed in buffer consisting of 20 mM NaCl, 5 mM MgCl₂, and 5 mM MES, pH 6.5. The complex was formed by incubating dsDNA with the protein in a 1:1 ratio and 5 mM magnesium chloride. A volume of 1 μl protein complex at 4 mg/ml TREX1 was mixed with an equal volume of reservoir solution and placed on a bridge above 500 μl of the reservoir solution. Optimized crystals of the TREX1 D18N mutant grew in 0.1 M sodium acetate and 9% PEG 4000 at 25° C. Prior to data collection all crystals were immersed in reservoir solution containing 10% oil (1:1 mineral oil and pantone-N) in preparation for cryo-cooling. Crystals were mounted on a nylon loop and flash cooled to 100 K in a stream of liquid nitrogen.

B1: mouse recombinant TREX1 D18N enzyme (amino acids 1-242) (enzyme, Mus musculus, UniProt Q91XB0 1-242, looked up)
chain: MGSQTLPHGHMQTLIFLNLEATGLPSSRPEVTELCLLAVHRRALENTSISQGHPPPVPRPPRVVDKLSLCIAPGKACSPGASEITGLSKAELEVQGRQRFDDNLAILLRAFLQRQPQPCCLVAHNGDRYDFPLLQTELARLSTPSPLDGTFCVDSIAALKALEQASSPSGNGSRKSYSLGSIYTRLYWQAPTDSHTAEGDVLTLLSICQWKPQALLQWVDEHARPFSTVKPMYGTPATTGTT
notes: range 1-242; Written as one protomer, because the entry is the protomer-protomer association; also called TREX1 D18N mutant; TREX1 D18N protomer
As to B1, the binding result is given as “binds”.
